Results on 1 protein are retold here after US11986450B2, “Methods and compositions for treating infection and inflammation with selenocyanate” (National Jewish Health, priority 2017, dated 2024).

Substrate in the series: N#CSO
Briefly: Kinetic analysis of HOSCN metabolism. The series is classed as biochemical. To be noted: other: recombinant mouse Sec-TrxR. From the text:
FIGS. 3A-3B. Kinetic analysis of HOSCN metabolism by recombinant mouse Sec-TrxR and recombinant E. coli Cys-TrxR. […] Sec-TrxR forms that lack a selenocysteine (Sec489Cys) or truncated by the last 8 amino acids (D8) had diminished activity.

B1: recombinant mouse Sec-TrxR (Mus musculus) (protein)
chain: GGQQSFDLLVIGGGSGGLACAKEAAQLGKKVAVADYVEPSPRGTKWGLGGTCVNVGCIPKKLMHQAALLGGMIRDAHHYGWEVAQPVQHNWKTMAEAVQNHVKSLNWGHRVQLQDRKVKYFNIKASFVDEHTVRGVDKGGKATLLSAEHIVIATGGRPRYPTQVKGALEYGITSDDIFWLKESPGKTLVVGASYVALECAGFLTGIGLDTTVMMRSIPLRGFDQQMSSLVTEHMESHGTQFLKGCVPSHIKKLPTNQLQVTWEDHASGKEDTGTFDTVLWAIGRVPETRTLNLEKAGISTNPKNQKIIVDAQEATSVPHIYAIGDVAEGRPELTPTAIKAGKLLAQRLFGKSSTLMDYSNVPTTVFTPLEYGCVGLSEEEAVALHGQEHVEVYHAYYKPLEFTVADRDASQCYIKMVCMREPPQLVLGLHFLGPNAGEVTQGFALGIKCGASYAQVMQTVGIHPTCSEEVVKLHISKRSGLEPTVTGCUG
For orientation: Km means the concentration of substrate that gives half-maximal velocity. As for B1, the Km worked out at 30 µM.
